According to patent US20250101120A1 (BEIJING SOLOBIO GENETECHNOLOGY, published 2025):

What was measured:
[1] = biological target: T1, hFc-hFasL (fusion protein of human Fc fragment and human FasL extracellular region) (human, UniProt P48023 134-281); assay: cell-based or functional assay
T1 sequence: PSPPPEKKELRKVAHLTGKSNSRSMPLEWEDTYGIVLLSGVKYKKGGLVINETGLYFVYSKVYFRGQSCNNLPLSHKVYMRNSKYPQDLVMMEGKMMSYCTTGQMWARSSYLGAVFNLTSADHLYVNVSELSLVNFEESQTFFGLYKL

[2] = biological target: T1, hFc-hFasL (fusion protein of human Fc …); assay: cell-based or functional assay; remark: listed apart in the source
[3] = biological target: T1, hFc-hFasL (fusion protein of human Fc …); assay: cell-based or functional assay; remark: listed apart in the source
[4] = biological target: T1, hFc-hFasL (fusion protein of human Fc …); assay: ELISA, hFc-hFasL coated, sample titrated (detection for this reference not separately stated)

IC50(nM), FasL antigen-induced apoptosis of HepG2 cells (CellTiter-Glo ATP) [1]: 11.3 nM
EC50(nM), FasL antigen-induced NF-κB signaling pathway activation (SEAP, HepG2-Dual) [2]: 7.23 nM
IC50(nM), FasL antigen-induced apoptosis of Jurkat cells (CellTiter-Glo ATP) [3]: > 100 nM
EC50 [4]: 23.5 nM
B1: APG101 (Fas fusion protein, Apogenix) (Fc fusion, UniProt P25445 26-172, looked up)
chain: QVTDINSKGLELRKTVTTVETQNLEGLHHDGQFCHKPCPPGERKARDCTVNGDEPDCVPCQEGKEYTDKAHFSSKCRRCRLCDEGHGLEVEINCTRTQNTKCRCKPNFFCNSTVCEHCDPCTKCEHGIIKECTLTSNTKCKEEGSRS
notes: also called Fas-Fc fusion protein APG101; FasL antagonist APG101; not shown: Fc part of APG101
